The record followed here is patent publication US20230355534A1, “METHOD TO ENCAPSULATE AN AQUEOUS SOLUTION COMPRISING A COMPOUND OF INTEREST IN A MATRIX” (SECOYA TECHNOLOGIES, priority 2020, published 2023).

The nature of data set [1]: Encapsulation efficiency by spectrophotometry of the second aqueous solution after separation of the particles. The format is physicochemical. The following applies: Example 1 particles (Eudragit S100 matrix, oleic acid shell); typical detection limit 2 w %. The protocol:
The encapsulation efficiency has been measured through spectrophotometry measurement by means of a Thermoscientific Genesys 180 device. The encapsulation efficiency is measured by measuring the percentage of compound of interest in the second aqueous solution after separation of the obtained particles. The percentage is a weight percentage, i.e. the mass of compound in relation to the total mass of the second aqueous solution. Given the high mass of second aqueous solution in relation to the mass of the compound of interest, only significant amounts of compound of interest are detected. A typical detection limit is 2 w %. If no compound of interest is detected in the second aqueous solution after separation of the obtained particles, it means that no to very low quantities of compound of interest are present in the second aqueous solution, and that the encapsulation can be considered to have been efficient. Detection of the compound of interest indicates less efficient encapsulation. The larger the amount of compound of interest detected, the less efficient was the encapsulation.
For the measurement of the encapsulation efficiency, the protein pork haemoglobin was used as compound of interest for encapsulation.

The nature of data set [2]: Encapsulation yield by spectrophotometry after dissolution of the particles. The format is physicochemical. Particulars: Example 1 particles; percentage of compound initially used that is detected in the particles; upper limit of detection 98%. The protocol:
A second evaluation method measures the encapsulation yield. The encapsulation yield is measured directly on the particles, and represents the percentage of the compound of interest initially used in the encapsulation method that is detected in the particles. The measurement is performed by spectrophotometry by means of a Thermoscientific Genesys 180 device after dissolution of the particles. Based on the detection limits of the device, the upper limit of encapsulation yield is noticed to be 98%, meaning that approximately 2% is not detected. This also means that an encapsulation yield of 98% indicates a very good encapsulation of the compound of interest.
For the measurement of the encapsulation yield, the protein pork haemoglobin was used as compound of interest for encapsulation. The encapsulation yield for pork haemoglobin was up to 98%, indicating a very high encapsulation yield.

As to pork haemoglobin, the “encapsulation efficiency: compound of interest detected in the second aqueous solution after separation of the obtained particles” value in data set [1] is “No traces”. Moreover, the encapsulation yield result in data set [2] was “up to 98%”.
